# Source: publication PMC6555819, “Comprehensive study of nuclear receptor DNA binding provides a revised framework for understanding receptor specificity”
# Positions count from the first letter of the chain named.
# B1: NRC3_random_hg19_482_o1 (dsDNA)
# DNA 1: GCCATCCTGTAAGACACTTCCTCTAAGAAATGGCTAGCGATTGACAGCGTAGAATGAAGG
# DNA 2: CCTTCATTCTACGCTGTCAATCGCTAGCCATTTCTTAGAGGAAGTGTCTTACAGGATGGC
# B2: NRC3_wobSeed135_DR5_G10A_o1 (dsDNA)
# DNA 1: GCCGAACTAAGTCATTGACAGGACAGTGAATAGTAAGCGATTGACAGCGTAGAATGAAGG
# DNA 2: CCTTCATTCTACGCTGTCAATCGCTTACTATTCACTGTCCTGTCAATGACTTAGTTCGGC
# B3: NRC3_wobSeed87_DR3_G10A_o1 (dsDNA)
# DNA 1: GCCGAACTAAGTCATCCAGGACAGTGAATACATTGAGCGATTGACAGCGTAGAATGAAGG
# DNA 2: CCTTCATTCTACGCTGTCAATCGCTCAATGTATTCACTGTCCTGGATGACTTAGTTCGGC
# B4: NRC3_random_hg19_440_o1 (dsDNA)
# DNA 1: GCGAAGGAGTTCTTATCTGGCCAGTTCCCATCCTGTGCGATTGACAGCGTAGAATGAAGG
# DNA 2: CCTTCATTCTACGCTGTCAATCGCACAGGATGGGAACTGGCCAGATAAGAACTCCTTCGC
# B5: NRC3_random_hg19_141_o1 (dsDNA)
# DNA 1: GCATTCTACCACTTCTTGCACCTAGTGCTGCTGTTCGCGATTGACAGCGTAGAATGAAGG
# DNA 2: CCTTCATTCTACGCTGTCAATCGCGAACAGCAGCACTAGGTGCAAGAAGTGGTAGAATGC
# B6: NRC3_random_hg19_411_o1 (dsDNA)
# DNA 1: GCATTGAGCAGGTGTTGATTACAAATGAGATGTTTCGCGATTGACAGCGTAGAATGAAGG
# DNA 2: CCTTCATTCTACGCTGTCAATCGCGAAACATCTCATTTGTAATCAACACCTGCTCAATGC
# B7: NRC3_random_hg19_306_o1 (dsDNA)
# DNA 1: GCAGAGCCCACTTCACTTCCTCAGAAACAGCCCTCCGCGATTGACAGCGTAGAATGAAGG
# DNA 2: CCTTCATTCTACGCTGTCAATCGCGGAGGGCTGTTTCTGAGGAAGTGAAGTGGGCTCTGC
# B8: NRC3_wobSeed69_DR2_G10T_o1 (dsDNA)
# DNA 1: GCAGTCAAATTTCACTAGGTAACGTAAGATTCAGCTGCGATTGACAGCGTAGAATGAAGG
# DNA 2: CCTTCATTCTACGCTGTCAATCGCAGCTGAATCTTACGTTACCTAGTGAAATTTGACTGC
# B9: NRC3_wobSeed4_DR0_A20T_o1 (dsDNA)
# DNA 1: GCCCTACTGGGCCAAGGTCTTTGATCAGTCAAAGCAGCGATTGACAGCGTAGAATGAAGG
# DNA 2: CCTTCATTCTACGCTGTCAATCGCTGCTTTGACTGATCAAAGACCTTGGCCCAGTAGGGC
# B10: NRC3_random_hg19_437_o1 (dsDNA)
# DNA 1: GCCGTGTTGGCAGGTGCCTGTACTCTCAGCTACTCGGCGATTGACAGCGTAGAATGAAGG
# DNA 2: CCTTCATTCTACGCTGTCAATCGCCGAGTAGCTGAGAGTACAGGCACCTGCCAACACGGC
# B11: NRC3_random_hg19_72_o1 (dsDNA)
# DNA 1: GCTCCCAACTAGCTGGAACTACAGGCACCTGCCACCGCGATTGACAGCGTAGAATGAAGG
# DNA 2: CCTTCATTCTACGCTGTCAATCGCGGTGGCAGGTGCCTGTAGTTCCAGCTAGTTGGGAGC
# B12: NRC3_random_hg19_52_o1 (dsDNA)
# DNA 1: GCCCAGGAGCAGTGGCTCACGCCTGTAATCCCAGCAGCGATTGACAGCGTAGAATGAAGG
# DNA 2: CCTTCATTCTACGCTGTCAATCGCTGCTGGGATTACAGGCGTGAGCCACTGCTCCTGGGC
# B13: NRC3_wobSeed1_DR0_C7A_o1 (dsDNA)
# DNA 1: GCCAAAATAGGTCAAGGTCAAAGTCGGTTTGTGCCAGCGATTGACAGCGTAGAATGAAGG
# DNA 2: CCTTCATTCTACGCTGTCAATCGCTGGCACAAACCGACTTTGACCTTGACCTATTTTGGC
# B14: NRC3_random_hg19_202_o1 (dsDNA)
# DNA 1: GCTCTCTGGTACCAGTGAAGAAGACGTCCAGGTGGCGCGATTGACAGCGTAGAATGAAGG
# DNA 2: CCTTCATTCTACGCTGTCAATCGCGCCACCTGGACGTCTTCTTCACTGGTACCAGAGAGC
# B15: NRC3_random_hg19_4_o1 (dsDNA)
# DNA 1: GCGTAGTTGTGTCCTCTCCTGTTCTCTCTTCTACTGGCGATTGACAGCGTAGAATGAAGG
# DNA 2: CCTTCATTCTACGCTGTCAATCGCCAGTAGAAGAGAGAACAGGAGAGGACACAACTACGC
# B16: NRC3_random_hg19_265_o1 (dsDNA)
# DNA 1: GCCTCCCTCCTCCCATCCTCCACTTTCCCATAGGCCGCGATTGACAGCGTAGAATGAAGG
# DNA 2: CCTTCATTCTACGCTGTCAATCGCGGCCTATGGGAAAGTGGAGGATGGGAGGAGGGAGGC
# B17: NRC3_random_hg19_283_o1 (dsDNA)
# DNA 1: GCTAGCTTACCTGGATCCACTTGGCCACTAGATTTGGCGATTGACAGCGTAGAATGAAGG
# DNA 2: CCTTCATTCTACGCTGTCAATCGCCAAATCTAGTGGCCAAGTGGATCCAGGTAAGCTAGC
# B18: NRC3_random_hg19_179_o1 (dsDNA)
# DNA 1: GCGGGAGGTGTAAGGATCCTTGTGCACTGCTTGGGAGCGATTGACAGCGTAGAATGAAGG
# DNA 2: CCTTCATTCTACGCTGTCAATCGCTCCCAAGCAGTGCACAAGGATCCTTACACCTCCCGC
# B19: NRC3_wobSeed88_DR3_T12A_o1 (dsDNA)
# DNA 1: GCTAGCCTAGGACATGCGGGCCAGTATAGTGTCGGCGCGATTGACAGCGTAGAATGAAGG
# DNA 2: CCTTCATTCTACGCTGTCAATCGCGCCGACACTATACTGGCCCGCATGTCCTAGGCTAGC
# B20: NRC3_random_hg19_268_o1 (dsDNA)
# DNA 1: GCTGTTCTTTGGCAGTCTAGAGAATCAGAAGAGCAAGCGATTGACAGCGTAGAATGAAGG
# DNA 2: CCTTCATTCTACGCTGTCAATCGCTTGCTCTTCTGATTCTCTAGACTGCCAAAGAACAGC
# B21: NRC3_random_hg19_75_o1 (dsDNA)
# DNA 1: GCCTGAAACTACCTTATCTCTATTCTAGGCTTAAGCGCGATTGACAGCGTAGAATGAAGG
# DNA 2: CCTTCATTCTACGCTGTCAATCGCGCTTAAGCCTAGAATAGAGATAAGGTAGTTTCAGGC
# B22: NRC3_wobSeed87_DR3_T12A_o1 (dsDNA)
# DNA 1: B3 DNA 1 with A10G, T12A
# DNA 2: B3 DNA 2 with A49T, T51C
# B23: NRC3_random_hg19_357_o1 (dsDNA)
# DNA 1: GCAACAGATTTCATTGAGGTGATCTACTTCGTTTCTGCGATTGACAGCGTAGAATGAAGG
# DNA 2: CCTTCATTCTACGCTGTCAATCGCAGAAACGAAGTAGATCACCTCAATGAAATCTGTTGC
# B24: NRC3_random_hg19_324_o1 (dsDNA)
# DNA 1: GCCAGTGATGCACACCTGTAACCCTAGCACTTTGGGGCGATTGACAGCGTAGAATGAAGG
# DNA 2: CCTTCATTCTACGCTGTCAATCGCCCCAAAGTGCTAGGGTTACAGGTGTGCATCACTGGC
# B25: NRC3_random_hg19_459_o1 (dsDNA)
# DNA 1: GCAAACACAACAGTACCTACCTTAAGCAGTTCATCAGCGATTGACAGCGTAGAATGAAGG
# DNA 2: CCTTCATTCTACGCTGTCAATCGCTGATGAACTGCTTAAGGTAGGTACTGTTGTGTTTGC
# B26: NRC3_random_hg19_291_o1 (dsDNA)
# DNA 1: GCGAGCAAAGGGACTTCTTAGATGGTGGTGGGCAAGGCGATTGACAGCGTAGAATGAAGG
# DNA 2: CCTTCATTCTACGCTGTCAATCGCCTTGCCCACCACCATCTAAGAAGTCCCTTTGCTCGC
# B27: NRC3_random_hg19_331_o1 (dsDNA)
# DNA 1: GCACAATCCCTACACTTTAGGAAGTCACAGTCTAGTGCGATTGACAGCGTAGAATGAAGG
# DNA 2: CCTTCATTCTACGCTGTCAATCGCACTAGACTGTGACTTCCTAAAGTGTAGGGATTGTGC
# B28: NRC3_random_hg19_434_o1 (dsDNA)
# DNA 1: GCCACATGAAAGCTGACAACAGAAGCACTCCAACACGCGATTGACAGCGTAGAATGAAGG
# DNA 2: CCTTCATTCTACGCTGTCAATCGCGTGTTGGAGTGCTTCTGTTGTCAGCTTTCATGTGGC
# B29: NRC3_wobSeed117_DR4_T11C_o1 (dsDNA)
# DNA 1: GCCGTCAAAGCTCAACTAAGGTAACGTAAAGCACGCGCGATTGACAGCGTAGAATGAAGG
# DNA 2: CCTTCATTCTACGCTGTCAATCGCGCGTGCTTTACGTTACCTTAGTTGAGCTTTGACGGC
# Molecular target: RARg:RXRa (Homo sapiens, UniProt P13631;P19793 full;full)
# Experiment: no ligand; PBM; 270 nM : 90 nM RXRa; PBS pH 7.4, 2% milk, 0.02% Triton X-100, 1 mM DTT, BSA, 0.4 mg/ml salmon testes DNA
# Details: tags: His kept;His cleaved; copies: 1;1; label: surface-attached array probe
# Method in brief: (§1)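 Random background probes are the reference for binding z-scores. These scores derive from regression-normalized fluorescence on custom Agilent 4×180K protein-binding microarrays incubated 1 h with ligand-free nuclear receptor dimers. Binding was detected with antibodies against each partner (one per run).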
# RARg:RXRa, sequence (P13631 whole entry, chain 1 of 2): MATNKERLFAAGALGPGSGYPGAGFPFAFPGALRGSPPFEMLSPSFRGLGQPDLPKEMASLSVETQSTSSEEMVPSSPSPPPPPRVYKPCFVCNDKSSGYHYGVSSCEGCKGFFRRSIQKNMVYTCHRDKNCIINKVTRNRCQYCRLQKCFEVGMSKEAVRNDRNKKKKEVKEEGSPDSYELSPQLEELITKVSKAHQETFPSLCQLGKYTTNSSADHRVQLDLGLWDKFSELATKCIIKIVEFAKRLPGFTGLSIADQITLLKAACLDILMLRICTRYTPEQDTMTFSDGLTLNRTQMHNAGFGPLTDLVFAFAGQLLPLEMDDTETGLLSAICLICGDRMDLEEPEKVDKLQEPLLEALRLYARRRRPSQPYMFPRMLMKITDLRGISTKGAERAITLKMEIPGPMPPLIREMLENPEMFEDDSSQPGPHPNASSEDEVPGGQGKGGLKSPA
# RARg:RXRa, sequence (P19793 whole entry, chain 2 of 2): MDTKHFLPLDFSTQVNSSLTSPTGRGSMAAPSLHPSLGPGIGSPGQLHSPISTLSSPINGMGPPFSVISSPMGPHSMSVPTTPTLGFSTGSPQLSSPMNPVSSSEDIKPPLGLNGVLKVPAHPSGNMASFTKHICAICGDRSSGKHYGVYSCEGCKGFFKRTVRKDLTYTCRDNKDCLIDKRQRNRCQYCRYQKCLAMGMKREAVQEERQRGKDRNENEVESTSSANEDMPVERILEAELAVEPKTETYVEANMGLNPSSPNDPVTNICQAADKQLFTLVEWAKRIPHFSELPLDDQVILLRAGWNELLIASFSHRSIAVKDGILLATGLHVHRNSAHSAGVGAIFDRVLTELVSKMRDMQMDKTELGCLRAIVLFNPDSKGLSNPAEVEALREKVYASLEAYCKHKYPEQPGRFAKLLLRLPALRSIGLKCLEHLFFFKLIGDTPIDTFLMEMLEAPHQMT
row,Binder,binding signal
1,B1,0.13 PBM z-score against 500 random probes
2,B2,0.48 PBM z-score against 500 random probes
3,B3,0.43 PBM z-score against 500 random probes
4,B4,-0.83 PBM z-score against 500 random probes

# Molecular target: PPARa:RXRa (Homo sapiens, UniProt Q07869;P19793 full;full)
# Experiment: as above
# Details: tags: GST kept;His cleaved; copies: 1;1; label: surface-attached array probe
# Method in brief: as §1
# PPARa:RXRa, sequence (Q07869 whole entry, chain 1 of 2): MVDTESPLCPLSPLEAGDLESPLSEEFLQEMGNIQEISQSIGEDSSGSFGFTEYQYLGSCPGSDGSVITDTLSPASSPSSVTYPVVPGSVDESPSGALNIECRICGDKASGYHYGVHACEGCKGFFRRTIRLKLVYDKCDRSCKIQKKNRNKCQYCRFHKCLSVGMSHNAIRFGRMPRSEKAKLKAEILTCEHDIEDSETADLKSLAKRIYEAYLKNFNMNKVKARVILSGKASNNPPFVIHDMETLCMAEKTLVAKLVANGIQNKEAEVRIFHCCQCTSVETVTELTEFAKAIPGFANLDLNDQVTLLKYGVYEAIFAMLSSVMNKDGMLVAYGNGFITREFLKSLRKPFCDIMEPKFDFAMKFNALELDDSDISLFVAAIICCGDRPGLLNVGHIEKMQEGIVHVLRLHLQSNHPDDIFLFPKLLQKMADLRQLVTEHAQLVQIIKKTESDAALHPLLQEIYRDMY
# PPARa:RXRa, sequence (P19793 whole entry, chain 2 of 2): as the sequence (P19793 whole entry, chain 2 of 2) above
row,Binder,binding signal
1,B5,0.17 PBM z-score against 500 random probes
2,B6,0.03 PBM z-score against 500 random probes
3,B7,-0.34 PBM z-score against 500 random probes
4,B8,0.35 PBM z-score against 500 random probes
5,B9,0.29 PBM z-score against 500 random probes
6,B10,-0.58 PBM z-score against 500 random probes
7,B11,0.23 PBM z-score against 500 random probes
8,B12,-0.74 PBM z-score against 500 random probes
9,B4,-0.35 PBM z-score against 500 random probes
10,B13,6.51 PBM z-score against 500 random probes

# Molecular target: RARb:RXRa (Homo sapiens, UniProt P10826;P19793 full;full)
# Experiment: as above
# Details: tags: His kept;His cleaved; copies: 1;1; label: surface-attached array probe
# Method in brief: as §1
# RARb:RXRa, sequence (P10826 whole entry, chain 1 of 2): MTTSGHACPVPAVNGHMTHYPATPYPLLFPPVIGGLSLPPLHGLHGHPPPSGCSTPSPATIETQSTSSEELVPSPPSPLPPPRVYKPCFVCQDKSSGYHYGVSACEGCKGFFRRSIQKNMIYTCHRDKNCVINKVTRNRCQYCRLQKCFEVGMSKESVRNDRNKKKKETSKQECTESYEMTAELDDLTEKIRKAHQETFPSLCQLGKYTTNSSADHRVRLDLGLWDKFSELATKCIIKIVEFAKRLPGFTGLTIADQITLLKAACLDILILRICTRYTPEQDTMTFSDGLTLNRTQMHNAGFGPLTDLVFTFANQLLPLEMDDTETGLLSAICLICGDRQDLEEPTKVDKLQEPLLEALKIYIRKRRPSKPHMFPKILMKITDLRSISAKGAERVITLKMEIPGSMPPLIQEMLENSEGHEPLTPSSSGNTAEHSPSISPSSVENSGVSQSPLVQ
# RARb:RXRa, sequence (P19793 whole entry, chain 2 of 2): as the sequence (P19793 whole entry, chain 2 of 2) above
row,Binder,binding signal
1,B14,-0.14 PBM z-score against 500 random probes
2,B15,0.3 PBM z-score against 500 random probes
3,B5,0.19 PBM z-score against 500 random probes
4,B1,-0.03 PBM z-score against 500 random probes
5,B6,0 PBM z-score against 500 random probes
6,B16,0.13 PBM z-score against 500 random probes
7,B7,-0.38 PBM z-score against 500 random probes
8,B8,0.27 PBM z-score against 500 random probes
9,B9,0.33 PBM z-score against 500 random probes
10,B17,-0.42 PBM z-score against 500 random probes
11,B10,-0.44 PBM z-score against 500 random probes
12,B18,0.23 PBM z-score against 500 random probes
13,B19,-0.15 PBM z-score against 500 random probes
14,B2,0.2 PBM z-score against 500 random probes
15,B20,-1.08 PBM z-score against 500 random probes
16,B21,0.33 PBM z-score against 500 random probes
17,B3,0.37 PBM z-score against 500 random probes
18,B22,0.14 PBM z-score against 500 random probes
19,B11,-0.32 PBM z-score against 500 random probes
20,B23,-0.12 PBM z-score against 500 random probes
21,B12,-0.55 PBM z-score against 500 random probes
22,B24,0.04 PBM z-score against 500 random probes
23,B25,0.25 PBM z-score against 500 random probes
24,B4,-0.36 PBM z-score against 500 random probes
25,B26,-0.49 PBM z-score against 500 random probes
26,B27,0.39 PBM z-score against 500 random probes
27,B28,-0.24 PBM z-score against 500 random probes
28,B13,5.5 PBM z-score against 500 random probes
29,B29,0.06 PBM z-score against 500 random probes
